Source: patent publication US20190160152A1 (OPKO BIOLOGICS LTD., priority 2016, published 2019)
Entries after “also recorded” stand apart in the source; their conditions may differ. Like-named read-outs stand apart in the source and are kept apart here.

Tests used:
[1] = ob/ob mouse model Study 3: MOD-6031 vs PEG30-Fmoc-OXM vs PEG30-EMCS-OXM; format: in vivo, male ob/ob mice
Procedure: Forty-two male ob/ob mice (7 weeks of age, Charles River, Italy) were acclimatized to the facility (10 days) followed by handling protocol whereby animals were handled as if to be dosed but were actually not weighed or dosed. Subsequently, animals underwent baseline period for 1 week in which each animal have been dosed twice by the subcutaneous route with PEG30-SH in volume of 20 ml/kg. Body weight, food and water intake were recorded daily, and samples were taken for non-fasting and fasting glucose measurements and non-fasting and fasting insulin measurements. Animals were subsequently allocated into three treatment, control and pair-fed groups (group A, N=10, groups B-E, N=8) based on plasma glucose, body weight and daily food and water intake. […] It was given the daily food ration equal to that eaten by its paired counterpart in group B the previous day. As such, animals in Group E will be one day out of phase with Group B in all study procedures and measurements. During the study, animals were dosed every four days (days: 1, 5, 9, 13, 17, 21, 25 and 29) as describes in table 3. […] Several procedures and sampling have been performed: non-fasting glucose on days 1, 6, 14, 22 and 29, fasting glucose on days 10, 18 and 26. On days 2 and 30 fasting glucose samples have been taken as part of an OGTT procedure, in which insulin was measured in parallel to glucose. Terminal samples on day 33 were analyzed for cholesterol, triglycerides and fructosamine.

[2] = biological target: T1, dipeptidyl peptidase IV (DPPIV) (Homo sapiens, UniProt P27487)
[3] = Ex-vivo hydrolysis rate of MOD-6031 in human plasma; format: in vitro ADME
Procedure: (§1) After evaporation to dryness and reconstitution, the extracts were analysed by LC-MS/MS. […] Incubation at temperatures of 35° C., 37° C. and 41° C. was examined in rat plasma. […] For human plasma, both pooled and individual samples were measured using plasma derived from male and female subjects. […] The hydrolysis was stopped at the designated time point by freezing the sample at −70° C. […] For each condition, three independent samples were prepared. Samples were incubated at a given temperature of either 35° C., 37° C. or 41° C. All samples were stored at −70° C. prior to analysis. […] Temperature, wherein hydrolysis was tested at temperatures of 35° C., 37° C., and 41° C.; and • c. Plasma source, wherein hydrolysis was tested in plasma samples obtained from rat, cynomolgus monkeys and human. For human plasma, both pooled and individual samples were used, and hydrolysis rates were measured separately for plasma from males and females. […] At designated time points, samples were taken for LC-MS/MS analysis.

[4] = Viscosity analysis (Brookfield rheometer); format: physicochemical
Procedure: Viscosity was measured with a Brookfield rheometer (DV-III Ultra). For each formulation, viscosity was obtained from the average of five shear rate (Sec^−1) readouts (15.0, 30.0, 45.0, 60.0 and 75.0) at a controlled temperature of 25° C. Processing of the data was done using Rheocalc® software (Brookfield).
Conditions included concentration, buffer type, pH, and NaCl. Buffers were formed by interaction of base part of the buffer and the trifluoro acetic acid (TFA) that co-eluted with the […] (DS). […]

[5] = Hydrolysis rate of MOD-6031 in phosphate buffer at different pH; format: physicochemical
[6] = mouse, in vivo, sc
[7] = ob/ob mouse model Study 2: chronic MOD-6031, OXM, liraglutide pharmacology; format: in vivo, male ob/ob mice
Procedure: Body weight, food and water intake were recorded daily. […] Body weight, food and water intake were measured daily.

[8] = IP glucose tolerance test (IPGTT model); format: in vivo, C57BL/6 male mice
[9] = Ex-vivo hydrolysis rate of MOD-6031 in cynomolgus monkey plasma; format: in vitro ADME
Procedure: as §1

[10] = Ex-vivo hydrolysis rate of MOD-6031 in rat plasma; format: in vitro ADME
Procedure: as §1

[11] = ob/ob mouse model Study 1: PEG30-S-MAL-FMS-OXM variants at 2000 nmol/kg; format: in vivo, male ob/ob mice; conditions: 2000 nmol/kg sc
Procedure: Terminal samples on day 19 were analyzed for cholesterol.

[12] = biological target: T1, dipeptidyl peptidase IV (DPPIV); assay: DPPIV digestion assay by RP-HPLC; conditions: pH = 6
[13] = 6000 nmol/kg sc every four days
[14] = Human female (pool) plasma 37° C.
[15] = Human male (pool) plasma 37° C.
[16] = 6000 nmol/kg, glucose 2 g/kg po
[17] = blood glucose, 100 nmol/kg peptide content IP 15 min prior to glucose 1.5 gr/kg IP
[18] = control PEG-SH, 100 nmol/kg peptide content IP
[19] = Monkey (lot# CYN128421) plasma 37° C.
[20] = Monkey (lot# CYN128423) plasma 37° C.

T1 sequence (P27487 whole entry, species assumed): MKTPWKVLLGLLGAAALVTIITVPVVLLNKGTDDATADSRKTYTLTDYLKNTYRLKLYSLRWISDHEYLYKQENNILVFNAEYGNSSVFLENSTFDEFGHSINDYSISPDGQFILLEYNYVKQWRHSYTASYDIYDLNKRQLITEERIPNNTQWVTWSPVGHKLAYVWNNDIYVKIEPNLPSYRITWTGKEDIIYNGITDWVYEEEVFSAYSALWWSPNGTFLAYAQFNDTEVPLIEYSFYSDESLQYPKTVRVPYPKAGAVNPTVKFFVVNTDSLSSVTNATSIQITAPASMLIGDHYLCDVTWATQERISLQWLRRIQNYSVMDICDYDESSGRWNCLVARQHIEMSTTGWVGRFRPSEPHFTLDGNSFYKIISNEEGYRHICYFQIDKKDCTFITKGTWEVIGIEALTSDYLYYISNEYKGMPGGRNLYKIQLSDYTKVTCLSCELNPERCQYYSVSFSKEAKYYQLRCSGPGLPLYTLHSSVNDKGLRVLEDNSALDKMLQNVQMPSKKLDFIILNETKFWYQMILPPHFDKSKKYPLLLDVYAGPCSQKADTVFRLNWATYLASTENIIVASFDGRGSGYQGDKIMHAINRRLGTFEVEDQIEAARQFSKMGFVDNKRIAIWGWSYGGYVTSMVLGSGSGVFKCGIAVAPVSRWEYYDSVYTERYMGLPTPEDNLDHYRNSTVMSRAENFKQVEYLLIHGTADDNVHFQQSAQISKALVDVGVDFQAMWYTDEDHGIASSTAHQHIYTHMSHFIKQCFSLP

Substance: PEG30-EMCS-OXM: non-reversible form where N-(epsilon-Maleimidocaproyloxy)succinimide (EMCS) replaces Fmoc as linker
- Final reduction changes in body weight (on day 33) compared to control (PEG-SH) [1, 13]: 2.4%
- degradation by DPPIV (in words) [2]: no degradation of the conjugates was observed

Substance: MOD-6031
- Cl/F_obs [3, 14]: 0.102 (mg)/(μg/ml)/h
- MRT0-∞ [3, 14]: 9 h
- Cl/F_obs ([3]; Human female A plasma 37° C.): 0.125 (mg)/(μg/ml)/h
- MRT0-∞ ([3]; Human female A plasma 37° C.): 8 h
- Cl/F_obs ([3]; Human female B plasma 37° C.): 0.136 (mg)/(μg/ml)/h
- MRT0-∞ ([3]; Human female B plasma 37° C.): 9 h
- Cl/F_obs ([3]; Human female C plasma 37° C.): 0.143 (mg)/(μg/ml)/h
- MRT0-∞ ([3]; Human female C plasma 37° C.): 7 h
- Cl/F_obs [3, 15]: 0.064 (mg)/(μg/ml)/h
- MRT0-∞ [3, 15]: 14 h
- Cl/F_obs ([3]; Human male A plasma 37° C.): 0.133 (mg)/(μg/ml)/h
- MRT0-∞ ([3]; Human male A plasma 37° C.): 8 h
- Cl/F_obs ([3]; Human male B plasma 37° C.): 0.148 (mg)/(μg/ml)/h
- MRT0-∞ ([3]; Human male B plasma 37° C.): 7 h
- Cl/F_obs ([3]; Human male C plasma 37° C.): 0.146 (mg)/(μg/ml)/h
- MRT0-∞ ([3]; Human male C plasma 37° C.): 7 h
- hydrolysis rate in different plasma types (in words) ([3]; rat, cynomolgus monkey and human plasma, 37° C.): comparable hydrolysis rate in most of the plasma samples; also recorded: very similar
- Viscosity ([4]; 100 mM Acetate, 100 mM Sucrose, pH 4.7, 66 mg/ml): 20.41 cp
- Viscosity ([4]; 100 mM Acetate, 100 mM Sucrose, pH 4.7, 72 mg/ml): 23.91 cp
- Viscosity ([4]; 100 mM Acetate, 100 mM Sucrose, pH 4.7, 77 mg/ml): 26.08 cp
- Viscosity ([4]; 100 mM Acetate, 100 mM Sucrose, pH 4.7, 80 mg/ml): 30.02 cp
- Viscosity ([4]; 100 mM Acetate, 100 mM Sucrose, pH 4.7, concentration 60 mg/ml (A280)): 17.48 cp
- Viscosity ([4]; T = 0, 50 mM Acetate pH 4.7, 60 mg/mL): 19.7 cP
- Viscosity ([4]; T = 0, 50 mM Acetate pH 4.7, 70 mg/mL): 29.2 cP
- Viscosity ([4]; T = 0, 50 mM Acetate pH 4.7, 80 mg/mL): 43.6 cP
- Viscosity ([4]; T = 0, 50 mM Acetate pH 4.7, 100 mg/mL): 79.2 cP
- Viscosity ([4]; T = 0, 50 mM Acetate pH 4.7, theoretical concentration 50 mg/mL): 12.9 cP
- Viscosity ([4]; T = 0, 100 mM Acetate pH 4.7, 50 mg/mL): 12.9 cP
- Viscosity ([4]; T = 0, 100 mM Acetate pH 4.7, 60 mg/mL): 20.8 cP
- Viscosity ([4]; T = 0, 100 mM Acetate pH 4.7, 70 mg/mL): 32.9 cP
- Viscosity ([4]; T = 0, 100 mM Acetate pH 4.7, 80 mg/mL): 48.7 cP
- Viscosity ([4]; T = 0, 100 mM Acetate pH 4.7, 100 mg/mL): 87.4 cP
- Viscosity ([4]; T = 24 hrs, 50 mM Acetate pH 4.7, 50 mg/mL): 12.2 cP
- Viscosity ([4]; T = 24 hrs, 50 mM Acetate pH 4.7, 60 mg/mL): 19.4 cP
- Viscosity ([4]; T = 24 hrs, 50 mM Acetate pH 4.7, 70 mg/mL): 28.3 cP
- Viscosity ([4]; T = 24 hrs, 100 mM Acetate pH 4.7, 50 mg/mL): 12.8 cP
- Viscosity ([4]; T = 24 hrs, 100 mM Acetate pH 4.7, 60 mg/mL): 20.4 cP
- Viscosity ([4]; T = 24 hrs, 100 mM Acetate pH 4.7, 70 mg/mL): 32.5 cP
- Cl/F_obs ([5]; Phosphate pH = 6.8): 0.061 (mg)/(μg/ml)/h
- MRT0-∞ ([5]; Phosphate pH = 6.8): 47.4 h
- Cl/F_obs ([5]; Phosphate pH = 7.4): 0.133 (mg)/(μg/ml)/h
- MRT0-∞ ([5]; Phosphate pH = 7.4): 20.3 h
- Cl/F_obs ([5]; Phosphate pH = 7.8): 0.227 (mg)/(μg/ml)/h
- MRT0-∞ ([5]; Phosphate pH = 7.8): 10.7 h
- Plasma concentration 24 hours following last injection of repeat dosing regimen (Day 33) ([6]; 1000 nmol/kg): 67.51 µg/mL
- Plasma concentration 24 hours following single dose (Day 2) ([6]; 1000 nmol/kg): 51.57 µg/mL
- Plasma concentration 24 hours following single dose (Day 2) ([6]; 3000 nmol/kg): 183.33 µg/mL
- Plasma concentration 24 hours following last injection of repeat dosing regimen (Day 33) ([6]; 6000 nmol/kg): 493.60 µg/mL
- Final reduction changes in body weight (on day 33) compared to control (PEG-SH) [1, 13]: 25.4%
- fasting glucose (in words) [1, 13]: significant improvement
- non-fasting glucose (in words) [1, 13]: significant improvement
- terminal plasma lipidic profiles and fructosamine (in words) ([1]; 6000 nmol/kg, day 33): significant reduction
- glucose profile, Day 30 OGTT (in words) [1, 16]: significant improved glucose profile
- glucose tolerance, day 2 OGTT (in words) [1, 16]: significantly improved glucose tolerance
- body weight reduction at the conclusion of the study (day 33) ([7]; 1000 nmol/kg sc twice a week): 5.2%
- body weight reduction at the conclusion of the study (day 33) ([7]; 3000 nmol/kg sc twice a week): 12.3%
- body weight and food consumption (in words) ([7]; 3000 nmoles/kg twice a week): significantly reduced
- body weight reduction at the conclusion of the study (day 33) ([7]; 6000 nmol/kg sc twice a week): 28.3%
- food intake and body weight (in words) ([7]; 6000 nmol/kg twice a week): significantly reduced
- glucose tolerance, OGTT days 2 and 30 (in words) ([7]; 1000, 3000 and 6000 nmoles/kg, glucose 2 g/kg po): significantly and dose-dependently improved
- terminal cholesterol (in words) ([7]; day 33): dose-dependently reduced
- terminal glucose (in words) ([7]; study termination, day 33): dose-dependently reduced
- terminal plasma insulin (in words) ([7]; study termination, day 33): markedly reduced
- glucose tolerance (in words) ([8]; IPGTT, compared to vehicle PEG-SH): slightly less potent
- AUC (0-180) [8, 17]: 15781
- AUC (−60-180) [8, 17]: 19891
- % AUC from control, AUC (0-180) [8, 18]: 70.1%
- % AUC from control, AUC (−60-180) [8, 18]: 74.1%
- Cl/F_obs [9, 19]: 0.172 (mg)/(μg/ml)/h
- MRT0-∞ [9, 19]: 5 h
- Cl/F_obs [9, 20]: 0.043 (mg)/(μg/ml)/h
- MRT0-∞ [9, 20]: 15 h
- Cl/F_obs ([10]; Table 10, Rat plasma 35° C.): 0.120 (mg)/(μg/ml)/h
- MRT0-∞ ([10]; Table 10, Rat plasma 35° C.): 14.7 h
- Cl/F_obs ([10]; Table 10, Rat plasma 37° C.): 0.129 (mg)/(μg/ml)/h
- MRT0-∞ ([10]; Table 10, Rat plasma 37° C.): 14.7 h
- Cl/F_obs ([10]; Table 10, Rat plasma 41° C.): 0.179 (mg)/(μg/ml)/h
- MRT0-∞ ([10]; Table 10, Rat plasma 41° C.): 9.6 h
- Cl/F_obs ([10]; Table 11, Rat plasma 37° C.): 0.056 (mg)/(μg/ml)/h
- MRT0-∞ ([10]; Table 11, Rat plasma 37° C.): 13 h
- hydrolysis rate, effect of temperature (in words) ([10]; rat plasma, 41° C. compared with 35° C. or 37° C.): incubation at 41 °C resulted in a higher hydrolysis rate
- ability to reduce weight, inhibit food intake and improve glycemic control (in words) [11]: superior efficacies
- non-fasting glucose (in words) [11]: improvement of non-fasting glucose
- final reduction of body weight (on day 18) compared to vehicle (PEG-SH) group ([11]; days 1, 5, 9, 13 and 16): 4.9%
- degradation by DPPIV (in words) [12]: no degradation of OXM was observed
